Biological target: µ opioid receptors in brain membranes of heterozygous Cre/S196A mice
Experiment: [^3H]DAMGO saturation binding, Scatchard analysis, brain membranes of heterozygous Cre/S196A mice

Kd: 2.45 nM
Substance: [^3H]DAMGO ([D-Ala^1.N-McPhe^4.Gly^5-ol]enkephalin) (peptide)
